From patent US7700571 (Genentech, dated 2010)

What was measured:
[1] = target: Flt-1 on primary mouse liver sinusoidal endothelial cells (LSEC) (mouse) (UniProt P35969); assay: cell-based or functional assay
KDR [2] = target: T1, KDR (UniProt P35968 20-764, limits assumed); assay: soluble radio-immuno receptor-binding assay (RIA)
T1 construct: also called VEGFR-2; KDR receptor

[3] = target: T2, Flt-1 on primary mouse liver sinusoidal endothelial cells (LSEC) (mouse, UniProt P35969 23-1333); assay: cell-based or functional assay
T2 sequence (looked up): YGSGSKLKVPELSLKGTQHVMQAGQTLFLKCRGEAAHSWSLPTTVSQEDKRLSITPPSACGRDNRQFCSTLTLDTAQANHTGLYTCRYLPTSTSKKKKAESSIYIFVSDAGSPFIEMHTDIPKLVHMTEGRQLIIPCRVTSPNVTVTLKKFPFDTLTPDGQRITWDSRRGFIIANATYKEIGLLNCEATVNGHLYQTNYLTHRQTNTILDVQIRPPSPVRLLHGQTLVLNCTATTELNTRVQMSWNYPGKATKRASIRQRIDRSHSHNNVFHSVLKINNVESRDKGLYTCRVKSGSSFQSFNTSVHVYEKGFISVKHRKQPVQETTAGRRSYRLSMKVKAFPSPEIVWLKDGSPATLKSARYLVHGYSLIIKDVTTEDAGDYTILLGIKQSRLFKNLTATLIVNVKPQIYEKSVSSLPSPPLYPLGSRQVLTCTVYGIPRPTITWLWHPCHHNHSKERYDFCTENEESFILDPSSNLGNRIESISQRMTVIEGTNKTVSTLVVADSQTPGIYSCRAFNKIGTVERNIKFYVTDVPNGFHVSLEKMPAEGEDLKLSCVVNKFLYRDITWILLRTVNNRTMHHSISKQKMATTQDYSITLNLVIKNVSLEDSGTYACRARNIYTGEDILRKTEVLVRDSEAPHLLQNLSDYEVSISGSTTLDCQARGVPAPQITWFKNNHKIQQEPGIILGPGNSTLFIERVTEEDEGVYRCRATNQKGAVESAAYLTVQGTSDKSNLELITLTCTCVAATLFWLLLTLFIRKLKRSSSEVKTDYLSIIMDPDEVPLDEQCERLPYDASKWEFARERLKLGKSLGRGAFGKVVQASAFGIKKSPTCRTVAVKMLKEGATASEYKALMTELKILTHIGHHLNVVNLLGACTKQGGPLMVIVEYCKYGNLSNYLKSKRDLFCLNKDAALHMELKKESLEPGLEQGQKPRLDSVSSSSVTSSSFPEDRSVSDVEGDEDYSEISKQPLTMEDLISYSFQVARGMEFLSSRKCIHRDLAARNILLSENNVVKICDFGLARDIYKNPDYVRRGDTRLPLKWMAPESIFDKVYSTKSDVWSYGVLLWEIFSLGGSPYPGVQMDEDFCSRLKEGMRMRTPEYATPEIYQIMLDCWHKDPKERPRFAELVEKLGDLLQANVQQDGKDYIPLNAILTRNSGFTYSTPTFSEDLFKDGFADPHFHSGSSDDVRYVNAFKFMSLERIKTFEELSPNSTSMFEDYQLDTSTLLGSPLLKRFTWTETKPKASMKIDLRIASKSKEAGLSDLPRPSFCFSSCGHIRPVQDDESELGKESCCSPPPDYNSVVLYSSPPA

KDR [4] = target: T1, KDR; assay: soluble radio-immuno receptor-binding assay (RIA); target KDR
Flt-1 = target: T3, Flt-1 (UniProt P17948 27-758, limits assumed); assay: soluble radio-immuno receptor-binding assay (RIA); target Flt-1
T3 construct: also called VEGFR-1; Flt-1 receptor
T3 sequence (P17948 27-758 limits assumed): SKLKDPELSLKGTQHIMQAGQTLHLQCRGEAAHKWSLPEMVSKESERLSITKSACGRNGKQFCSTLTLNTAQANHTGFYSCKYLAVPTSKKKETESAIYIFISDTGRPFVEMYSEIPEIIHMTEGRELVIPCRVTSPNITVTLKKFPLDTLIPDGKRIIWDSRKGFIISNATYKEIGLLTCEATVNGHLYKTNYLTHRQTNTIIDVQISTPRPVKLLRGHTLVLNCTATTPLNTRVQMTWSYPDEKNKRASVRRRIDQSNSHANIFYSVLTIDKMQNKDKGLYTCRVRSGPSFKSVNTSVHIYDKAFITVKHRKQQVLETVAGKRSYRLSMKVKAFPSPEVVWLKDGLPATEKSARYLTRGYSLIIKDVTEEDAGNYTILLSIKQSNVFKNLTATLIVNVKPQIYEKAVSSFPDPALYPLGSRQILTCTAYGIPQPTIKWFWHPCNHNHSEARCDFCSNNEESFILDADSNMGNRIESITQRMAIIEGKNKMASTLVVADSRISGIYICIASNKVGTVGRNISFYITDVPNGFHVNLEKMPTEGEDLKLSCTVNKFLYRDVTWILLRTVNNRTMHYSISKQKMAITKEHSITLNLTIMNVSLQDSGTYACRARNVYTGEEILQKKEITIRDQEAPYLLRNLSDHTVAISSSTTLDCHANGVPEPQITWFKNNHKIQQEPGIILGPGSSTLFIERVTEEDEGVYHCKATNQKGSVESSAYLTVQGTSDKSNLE

T1 sequence (P35968 20-764 limits assumed): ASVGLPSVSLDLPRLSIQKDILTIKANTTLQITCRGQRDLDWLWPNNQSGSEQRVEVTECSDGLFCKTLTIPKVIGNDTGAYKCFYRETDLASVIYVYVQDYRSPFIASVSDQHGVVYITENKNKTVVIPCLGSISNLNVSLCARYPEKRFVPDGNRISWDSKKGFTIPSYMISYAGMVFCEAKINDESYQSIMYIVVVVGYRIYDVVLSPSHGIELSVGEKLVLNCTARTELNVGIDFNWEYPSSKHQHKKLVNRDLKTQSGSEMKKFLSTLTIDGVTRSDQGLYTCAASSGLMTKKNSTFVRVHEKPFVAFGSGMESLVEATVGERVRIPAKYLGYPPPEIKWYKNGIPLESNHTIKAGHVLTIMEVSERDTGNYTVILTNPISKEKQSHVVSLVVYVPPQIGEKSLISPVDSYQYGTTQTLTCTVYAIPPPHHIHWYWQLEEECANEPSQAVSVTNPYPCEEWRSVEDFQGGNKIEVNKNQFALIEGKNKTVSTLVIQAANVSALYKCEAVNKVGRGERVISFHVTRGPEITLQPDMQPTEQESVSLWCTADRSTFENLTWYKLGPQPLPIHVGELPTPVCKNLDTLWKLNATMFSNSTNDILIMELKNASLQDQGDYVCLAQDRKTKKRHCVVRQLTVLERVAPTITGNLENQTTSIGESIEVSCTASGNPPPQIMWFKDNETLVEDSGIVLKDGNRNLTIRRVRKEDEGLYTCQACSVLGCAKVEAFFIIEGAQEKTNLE

recombinant human VEGF (from UniProt P15692 181-395) (ligand)
induction of HGF mRNA in LSEC (Taqman RT-PCR, 10 ng/ml, 24 h) [1]: 5.5 fold | induction of IL-6 mRNA in LSEC (Taqman RT-PCR, 10 ng/ml, 24 h) [1]: 3.3 fold

B1: Flt-sel variant I43A/I46A/Q79A/I83A (ligand)
chain: APMAEGGGQNHHEVVKFMDVYQRSYCHPIETLVDIFQEYPDEAEYAFKPSCVPLMRCGGCCNDEGLECVPTEESNITMAIMRAKPHQGQHIGEMSFLQHNKCECRPKKDRARQENPCGPCSERRKHLFVQDPQTCKCSCKNTDSRCKARQLELNERTCRCDKPRR
notes: VEGF variant with four alanine substitutions, numbered on native VEGF; also called Fit-sel; FIt-sel
fold reduction of KDR-binding affinity against native VEGF(8-109) (KDR [2]): ≥ 470 fold | induction of HGF mRNA in LSEC (Taqman RT-PCR, 10 ng/ml, 24 h) [3]: 5.5 fold | induction of IL-6 mRNA in LSEC (Taqman RT-PCR, 10 ng/ml, 24 h) [3]: 3.3 fold

B2: native VEGF(8-109) (ligand)
chain: GQNHHEVVKFMDVYQRSYCHPIETLVDIFQEYPDEIEYIFKPSCVPLMRCGGCCNDEGLECVPTEESNITMQIMRIKPHQGQHIGEMSFLQHNKCECRPKKD
notes: If that entry includes the signal peptide, 8-109 must be shifted; also called the native protein
Kd (KDR [4]): 0.5 nM | Kd (Flt-1): 0.4 nM
